{"source": "patent US11732043", "key": {"[1]": {"target": "human LAG-3 (huLAG-3), full length, expressed on the cell surface (human) (UniProt P18627)", "sequence (P18627 23-525)": "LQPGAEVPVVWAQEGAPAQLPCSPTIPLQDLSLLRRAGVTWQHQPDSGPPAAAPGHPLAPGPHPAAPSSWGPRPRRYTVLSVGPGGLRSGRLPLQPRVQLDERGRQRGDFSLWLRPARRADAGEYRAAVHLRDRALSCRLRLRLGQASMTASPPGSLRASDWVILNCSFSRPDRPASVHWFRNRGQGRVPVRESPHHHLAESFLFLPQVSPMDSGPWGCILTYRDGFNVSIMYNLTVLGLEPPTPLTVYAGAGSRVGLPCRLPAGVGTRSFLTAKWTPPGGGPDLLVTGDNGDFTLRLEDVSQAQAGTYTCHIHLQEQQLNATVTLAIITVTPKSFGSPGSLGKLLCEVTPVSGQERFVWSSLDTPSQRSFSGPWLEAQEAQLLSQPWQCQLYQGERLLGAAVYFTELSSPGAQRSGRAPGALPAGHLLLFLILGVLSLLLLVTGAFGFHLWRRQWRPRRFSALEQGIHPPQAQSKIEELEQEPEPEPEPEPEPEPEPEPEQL"}, "[2]": {"target": "human LAG-3 (huLAG-3), full length, expressed on the cell surface (human) (UniProt P18627)", "assay": "method of determination not stated; legend of the FACS binding figure (293FF-LAG-3 cells, activated human T-cells)"}, "[3]": {"target": "human LAG-3 (huLAG-3), full length, expressed on the cell surface (human) (UniProt P18627)", "assay": "FACS titration on activated human T cells, detection with PE-labelled anti-IgG F(ab')2 [right panel Activated T cells]"}, "[4]": {"target": "human LAG-3 (huLAG-3), full length, expressed on the cell surface (human) (UniProt P18627)", "remark": "listed apart in the source"}}, "note": "Where two headings read alike, the source gives them in different places."}
{"substance": "PG7431, anti-LAG-3 antibody 25F7 produced in a human IgG1 format", "values": [{"measurement": "EC50 (read off the curve)", "setting": "[1]", "value": 0.1, "unit": "µg/mL"}, {"measurement": "Kd", "setting": "[2]", "value": 0.2, "unit": "nM"}, {"measurement": "EC50 (read off the curve)", "setting": "[3]", "value": 0.04, "unit": "µg/mL"}, {"measurement": "EC50 (read off the curve)", "setting": "[4]", "value": 0.1, "unit": "µg/mL"}]}
